Measured values: patent publication US5871995

Key:
[1] = target: phenylalanyl-glycyl-phenylalanyl-glycine
[2] = target: phenylalanyl-glycyl-phenylalanyl-hydroxylglycine

Enzyme activity n mole/h/ml medium, PheGlyPheGly to PheGlyPhehydroxyGly (n mole/h/ml medium) [1]	Enzyme activity n mole/h/ml medium, PheGlyPhehydroxyGly to PheGlyPhe-NH2 + glyoxylic acid (n mole/h/ml medium) [2]	Substance
2.5	4.2	Enzyme expressed from plasmid SV-203 (Signal sequence + N-terminal domain + C-terminal domain) in COS-7 cells (from UniProt P14925)
2.8	< 2	Enzyme expressed from plasmid SV-a (Signal sequence + N-terminal domain) in COS-7 cells (from UniProt P14925)
0.4	10.8	Enzyme expressed from plasmid SV-b (Signal sequence + C-terminal domain) in COS-7 cells (from UniProt P14925)
